According to US20050227306A1, “Fluorescence polarization assay to detect protease cleavage” (priority 2003, published 2005):

Key:
Format in all cases: biochemical, E. coli
[1] = system: substrate 21-F (His6-tetraCys-X-MBP); assay: SDS-PAGE analysis of proteolysis of substrate 21-F; details: incubated 16 h (overnight)
Procedure: FIG. 22 is a photograph of a gel depicting SDS-PAGE analysis of protease substrates incubated with Factor Xa and TEV protease for 16 h. Lane M, molecular weight standards of 31 and 45 kDa. Lanes 1-5, Factor Xa with substrates 21-F, 22-F, 23-F, 24-F and 25-F, respectively. Lanes 6-10, trypsin with substrates 21-F, 22-F, 23-F, 24-F and 25-F, respectively. Lanes 11-14, TEV protease with substrates 21-F, 22-F, 23-F and 24-F, respectively.
The intensity of protein bands in SDS-PAGE gels was determined using Image J-brand software, version 1.30. This is a public domain program that can be obtained from the National Institutes of Health (Bethesda, Md.).
SDS-PAGE analysis with Coomassie staining was performed to further evaluate the predicted low rates of substrate dependent non-specific proteolysis.

[2] = system: substrate 26-F (His6-tetraCys-X-MBP); assay: Fluorescence anisotropy proteolysis assay with substrate 26-F; details: for Relative rate of reaction, substrate 26F: initial rate by fluorescence anisotropy, normalized to the rate of the protease with its preferred cognate substrate
From the text: (§1) All protease substrates were expressed in E. coli Rosetta pLacI Rare to provide compensation for rare codons (see Kirienko et al. (2004) Biochemistry (Mosc) 69:527-535; available commercially from Novagen, a wholly-owned subsidiary of EMD Biosciences, Inc., Madison, Wis.). The expression was done in 2-L PET bottles (Millard et al. (2003) Protein Expr. Purif. 29:311-320). The protein purification followed typical IMAC purification procedures (see Sambrook & Russell, supra) including elution in an imidazole gradient from 0-350 mM. After SDS-PAGE analysis, appropriate fractions were pooled and desalted into 20 mM phosphate, pH 7.5, containing 100 mM NaCl and 0.3 mM TCEP. Proteins were concentrated to a final concentration of 300-600 μM using centrifugal concentrators. Glycerol (50% v/v) was added to all protease substrates except 26-F and frozen at −20° C. The Arabidopsis targets At3g03410 (expressed from pVP14) and At3g16990 (expressed from pVP15) were flash frozen as drops in liquid nitrogen and stored at −80° C. […]
(§2) Protease assays were conducted using a combination of 20 μM unlabeled and 40 nM labeled protease substrates unless noted otherwise. […] This decreased the amount of time between mixing and measurement to less than three minutes and allowed the fluorescence anisotropy measured at the first time point to closely approximate the anisotropy of the intact fusion protein. […]
(§3) Fluorescence anisotropy was measured using a Tecan 384 Ultra plate spectrofluorimeter. Excitation was at 485 nm (25 nm bandpass) and emission was measured at 525 nm (20 nm bandpass). […] The observed anisotropy is the sum of the anisotropy of the individual fluorescent components, or robs=Σfiri, where robs, is the observed anisotropy, fi is the fractional fluorescence intensity of component i, and ri is the anisotropy of component i. See J. Lakowicz, “Principles of fluorescence spectroscopy,” Kluwer Academic/Plenum Publishers, New York, 1999. […]

[3] = system: substrate 22-F (His6-tetraCys-X-MBP); assay: Fluorescence anisotropy proteolysis assay with substrate 22-F; details: initial rate by fluorescence anisotropy, normalized to the rate of the protease with its preferred cognate substrate
From the text: as §1, with “TCEP.” for “TCEP. Proteins were concentrated to a final concentration of 300-600 μM using centrifugal concentrators. Glycerol (50% v/v) was added to all protease substrates except 26-F and frozen at −20° C. The Arabidopsis targets At3g03410 (expressed from pVP14) and At3g16990 (expressed from pVP15) were flash frozen as drops in liquid nitrogen and stored at −80° C.”
as §2
(§4) Fluorescence anisotropy was measured using a Tecan 384 Ultra plate spectrofluorimeter. Excitation was at 485 nm (25 nm bandpass) and emission was measured at 525 nm (20 nm bandpass). […] See J. Lakowicz, “Principles of fluorescence spectroscopy,” Kluwer Academic/Plenum Publishers, New York, 1999. […]

[4] = system: substrate 23-F (His6-tetraCys-X-MBP); assay: Fluorescence anisotropy proteolysis assay with substrate 23-F; details: for Relative rate of reaction, substrate 23F: initial rate by fluorescence anisotropy, normalized to the rate of the protease with its preferred cognate substrate
From the text: as §1, §2, §3

[5] = system: substrate 21-F (His6-tetraCys-X-MBP); assay: Fluorescence anisotropy proteolysis assay with substrate 21-F; details: initial rate by fluorescence anisotropy, normalized to the rate of the protease with its preferred cognate substrate
From the text: as §1, with “TCEP.” for “TCEP. Proteins were concentrated to a final concentration of 300-600 μM using centrifugal concentrators. Glycerol (50% v/v) was added to all protease substrates except 26-F and frozen at −20° C. The Arabidopsis targets At3g03410 (expressed from pVP14) and At3g16990 (expressed from pVP15) were flash frozen as drops in liquid nitrogen and stored at −80° C.”
as §2, §4

[6] = system: substrate 24-F (His6-tetraCys-X-MBP); assay: Fluorescence anisotropy proteolysis assay with substrate 24-F; details: initial rate by fluorescence anisotropy, normalized to the rate of the protease with its preferred cognate substrate
From the text: as §1, with “TCEP.” for “TCEP. Proteins were concentrated to a final concentration of 300-600 μM using centrifugal concentrators. Glycerol (50% v/v) was added to all protease substrates except 26-F and frozen at −20° C. The Arabidopsis targets At3g03410 (expressed from pVP14) and At3g16990 (expressed from pVP15) were flash frozen as drops in liquid nitrogen and stored at −80° C.”
as §2, §4

[7] = system: substrate 25-F (His6-tetraCys-X-MBP); assay: Fluorescence anisotropy proteolysis assay with substrate 25-F; details: initial rate by fluorescence anisotropy, normalized to the rate of the protease with its preferred cognate substrate
From the text: as §1, with “TCEP.” for “TCEP. Proteins were concentrated to a final concentration of 300-600 μM using centrifugal concentrators. Glycerol (50% v/v) was added to all protease substrates except 26-F and frozen at −20° C. The Arabidopsis targets At3g03410 (expressed from pVP14) and At3g16990 (expressed from pVP15) were flash frozen as drops in liquid nitrogen and stored at −80° C.”
as §2, §4

Row | Molecule | Proteolysis of substrate 21-F by SDS-PAGE with Coomassie staining [1] | Relative rate of reaction, substrate 26F [2] | Specific reaction rate ([2]; substrate 26-F, slope of initial rate versus protease concentration, errors two standard deviations) | Relative rate of reaction, substrate 22F [3] | Relative rate of reaction, substrate 23F [4] | Relative rate of reaction, substrate 21F [5] | Relative rate of reaction, substrate 24F [6] | Relative rate of reaction, substrate 25F [7] | Specific reaction rate ([4]; substrate 23-F, per supplier's reported activity unit)
1 | TEV: tobacco etch virus protease (protein) GESLFKGPRDYNPISSTICHLTNESDGHTTSLYGIGFGPFIITNKHLFRRNNGTLLVQSLHGVFKVKNTTTLQQHLIDGRDMIIIRMPKDFPPFPQKLKFREPQREERICLVTTNFQTKSMSSMVSDTSCTFPSSDGIFWKHWIQTKDGQCGSPLVSTRDGFIVGIHSASNFTNTNNYFTSVPKNFMELLTNQEAQQWVSGWRLNADSVLWGGHKVFMSKPEEPFQPVKEATQLMNELVYSQ | minor amount of proteolysis | 1 | 17.3±0.7 moles substrate proteolyzed per mole of protease per hour | 0.0 | −0.02 | 0.01 | −0.01 | 0.0 | –
2 | Enterokinase: commercial protease used for removing fusion tags (protein, UniProt P98072 2-800; P98072 801-1035, looked up) Enteropeptidase non-catalytic …: GSKRSVPSRHRSLTTYEVMFAVLFVILVALCAGLIAVSWLSIQGSVKDAAFGKSHEARGTLKIISGATYNPHLQDKLSVDFKVLAFDIQQMIDDIFQSSNLKNEYKNSRVLQFENGSIIVIFDLLFDQWVSDKNVKEELIQGIEANKSSQLVTFHIDLNSIDITASLENFSTISPATTSEKLTTSIPLATPGNVSIECPPDSRLCADALKCIAIDLFCDGELNCPDGSDEDNKTCATACDGRFLLTGSSGSFEALHYPKPSNNTSAVCRWIIRVNQGLSIQLNFDYFNTYYADVLNIYEGMGSSKILRASLWSNNPGIIRIFSNQVTATFLIQSDESDYIGFKVTYTAFNSKELNNYEKINCNFEDGFCFWIQDLNDDNEWERTQGSTFPPSTGPTFDHTFGNESGFYISTPTGPGGRRERVGLLTLPLDPTPEQACLSFWYYMYGENVYKLSINISSDQNMEKTIFQKEGNYGQNWNYGQVTLNETVEFKVSFYGFKNQILSDIALDDISLTYGICNVSVYPEPTLVPTPPPELPTDCGGPHDLWEPNTTFTSINFPNSYPNQAFCIWNLNAQKGKNIQLHFQEFDLENIADVVEIRDGEGDDSLFLAVYTGPGPVNDVFSTTNRMTVLFITDNMLAKQGFKANFTTGYGLGIPEPCKEDNFQCKDGECIPLVNLCDGFPHCKDGSDEAHCVRLFNGTTDSSGLVQFRIQSIWHVACAENWTTQISDDVCQLLGLGTGNSSVPTFSTGGGPYVNLNTAPNGSLILTPSQQCLEDSLILLQCNYKSCGKKLVTQEVSPK Enteropeptidase catalytic …: IVGGSDSREGAWPWVVALYFDDQQVCGASLVSRDWLVSAAHCVYGRNMEPSKWKAVLGLHMASNLTSPQIETRLIDQIVINPHYNKRRKNNDIAMMHLEMKVNYTDYIQPICLPEENQVFPPGRICSIAGWGALIYQGSTADVLQEADVPLLSNEKCQQQMPEYNITENMVCAGYEAGGVDSCQGDSGGPLMCQENNRWLLAGVTSFGYQCALPNRPGVYARVPRFTEWIQSFLH | – | 1 | – | 1.3 | 1 | 0.5 | 0.2 | – | 0.130±0.007 nmole substrate proteolyzed per unit enzyme per hour
